The results in this text go back to patent publication US20250215104A1 (WALDEN BIOSCIENCES, published 2025).

One may read the koff as the rate constant with which the complex falls apart.

Assay [1] has as its target T1, cynomolgus soluble urokinase plasminogen activator receptor (suPAR) (cynomolgus, UniProt Q9GK78 23-303, limits assumed).
T1 construct: Column head says only 'cynomologus'; also called cynomolgus suPAR; cynomolgus uPAR
As to the kind of experiment: BLI (Octet) off-rate screen of scFv clones.

In assay [2] the target is T2, human soluble urokinase plasminogen activator receptor (suPAR) (human, UniProt Q03405 23-303, limits assumed).
T2 construct: Column head says only 'human'; also called human suPAR; hsuPAR
The assay can be described thus: BLI (Octet) off-rate screen of scFv clones. (In general: Biolayer interferometry detects binding as a change in optical thickness at a sensor tip.)

T1 sequence (Q9GK78 23-303 limits assumed): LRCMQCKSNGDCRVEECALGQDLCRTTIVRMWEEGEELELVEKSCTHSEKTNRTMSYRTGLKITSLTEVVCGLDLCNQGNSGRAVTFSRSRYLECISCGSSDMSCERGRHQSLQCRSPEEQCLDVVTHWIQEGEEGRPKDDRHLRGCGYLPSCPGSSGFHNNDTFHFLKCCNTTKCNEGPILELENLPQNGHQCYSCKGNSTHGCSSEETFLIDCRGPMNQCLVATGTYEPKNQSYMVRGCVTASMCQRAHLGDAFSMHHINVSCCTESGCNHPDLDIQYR
T2 sequence (Q03405 23-303 limits assumed): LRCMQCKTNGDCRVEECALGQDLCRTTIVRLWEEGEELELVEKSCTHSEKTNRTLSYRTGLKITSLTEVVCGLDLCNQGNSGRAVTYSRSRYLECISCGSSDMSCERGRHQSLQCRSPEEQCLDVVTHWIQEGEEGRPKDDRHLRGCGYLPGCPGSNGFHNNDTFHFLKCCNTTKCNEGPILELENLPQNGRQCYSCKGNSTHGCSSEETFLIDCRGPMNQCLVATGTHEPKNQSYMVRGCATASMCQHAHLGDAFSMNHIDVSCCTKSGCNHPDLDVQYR

B1: suPAR_DB02_E07 (scFv, V domains shown)
VH: QVQLVQSGAEVKKPGASVKVSCKASGYNFNAYYMHWVRQAPGQGLEWMGWIDPHSGGTNYAQKFQGRVTMTRDTSTSTVYMELSSLRSEDTAVYYCARGYDVDWFVYWGQGTLVTVSS
VL: DIQMTQSPSSLSASVGDRVTITCSARSSVSYMYWYQQKPGKAPKLLIYRTSNLASGVPSRFSGSGSGTDFTLTISSLQPEDFATYYCQQYHSYPPTFGGGTKVEIK
notes: scFv clone from phage display
Take B1: the koff stood at 0.000177 s⁻¹ in assay [1] and 0.00392 s⁻¹ in assay [2].

B2: suPAR_DB02_G04 (scFv, V domains shown)
VH: QVQLVQSGAEVKKPGASVKVSCKASGHTFTGYYIHWVRQAPGQGLEWMGWIDHENGNTIYDQKFQGRVTMTRDTSTSTVYMELSSLRSEDTAVYYCARGYDVDWFVYWGQGTLVTVSS
VL: DIQMTQSPSSLSASVGDRVTITCSARSSVSYMYWYQQKPGKAPKLLIYRTSNLASGVPSRFSGSGSGTDFTLTISSLQPEDFATYYCQQYHSYPPTFGGGTKVEIK
notes: scFv clone from phage display
For the molecule B2, the koff in assay [1] came to 9.86e-05 s⁻¹; in assay [2] it was 0.00448 s⁻¹.

B3: suPAR_DB02_G01 (scFv, V domains shown)
VH: QVQLVQSGAEVKKPGASVKVSCKASGHTFTDYYMHWVRQAPGQGLEWMGWISPNSGGTNYAQKFQGRVTMTRDTSTSTVYMELSSLRSEDTAVYYCARGYDVDWFVYWGQGTLVTVSS
VL: DIQMTQSPSSLSASVGDRVTITCSARSSVSYMYWYQQKPGKAPKLLIYRTSNLASGVPSRFSGSGSGTDFTLTISSLQPEDFATYYCQQYHSYPPTFGGGTKVEIK
notes: scFv clone from phage display
With B3, the results for the off-rate (koff) in assay [1] and in assay [2] were 5.19e-05 s⁻¹ and 0.00438 s⁻¹, respectively.

B4: suPAR_DB02_F05 (scFv, V domains shown)
VH: QVQLVQSGAEVKKPGASVKVSCKASGYTFTGNYMQWVRQAPGQGLEWMGWIDHENGNTIYDQKFQGRVTMTRDTSTSTVYMELSSLRSEDTAVYYCARGYDVDWFVYWGQGTLVTVSS
VL: DIQMTQSPSSLSASVGDRVTITCSARSSVSYMYWYQQKPGKAPKLLIYRTSNLASGVPSRFSGSGSGTDFTLTISSLQPEDFATYYCQQYHSYPPTFGGGTKVEIK
notes: scFv clone from phage display
Take B4: the koff turned out to be 0.000161 s⁻¹ in assay [1] and 0.00613 s⁻¹ in assay [2].

B5: suPAR_DB02_G03 (scFv, V domains shown)
VH: QVQLVQSGAEVKKPGASVKVSCKASGYTFTSYYMHWVRQAPGQGLEWMGWIDPENGNTIYDQKFQGRVTMTRDTSTSTVYMELSSLRSEDTAVYYCARGYDVDWFVYWGQGTLVTVSS
VL: DIQMTQSPSSLSASVGDRVTITCSASQSVSYMYWYQQKPGKAPKLLIYRTSNLASGVPSRFSGSGSGTDFTLTISSLQPEDFATYYCQQYHSYPPTFGGGTKVEIK
notes: scFv clone from phage display
Consider B5, for which the koff is 0.00025 s⁻¹ in assay [1] and 0.00346 s⁻¹ in assay [2].

B6: suPAR_DB02_G12 (scFv, V domains shown)
VH: QVQLVQSGAEVKKPGASVKVSCKASGFNIKDYYIHWVRQAPGQGLEWMGWIDPENGSTIYDQKFQGRVTMTRDTSTSTVYMELSSLRSEDTAVYYCARGYDVDWFVYWGQGTLVTVSS
VL: DIQMTQSPSSLSASVGDRVTITCSASSSVSYMYWYQQKPGKAPKLLIYRTSSLQSGVPSRFSGSGSGTDFTLTISSLQPEDFATYYCQQYHSYPPTFGGGTKVEIK
notes: scFv clone from phage display
In the case of B6, the koff in assay [1] came to 0.000584 s⁻¹; in assay [2], 0.00371 s⁻¹.

B7: suPAR_DB02_F10 (scFv, V domains shown)
VH: QVQLVQSGAEVKKPGASVKVSCKASGYTFTTYYMHWVRQAPGQGLEWMGWIDPEGGNTSYDQKFQGRVTMTRDTSTSTVYMELSSLRSEDTAVYYCARGYDVDWFVYWGQGTLVTVSS
VL: DIQMTQSPSSLSASVGDRVTITCSARSSVSYMYWYQQKPGKAPKLLIYRTSNLASGVPSRFSGSGSGTDFTLTISSLQPEDFATYYCQQYHSYPPTFGGGTKVEIK
notes: scFv clone from phage display
Regarding B7, the dissociation rate constant (koff) amounted to 0.000375 s⁻¹ in assay [1] and 0.00106 s⁻¹ in assay [2].

B8: suPAR_DB02_H03 (scFv, V domains shown)
VH: QVQLVQSGAEVKKPGASVKVSCKASGYTFTTYYMHWVRQAPGQGLEWMGWIDPEGGSTIYDQKFQGRVTMTRDTSTSTVYMELSSLRSEDTAVYYCARGYDVDWFVYWGQGTLVTVSS
VL: DIQMTQSPSSLSASVGDRVTITCSARSSVSYMYWYQQKPGKAPKLLIYRTSNLASGVPSRFSGSGSGTDFTLTISSLQPEDFATYYCQQYHSYPPTFGGGTKVEIK
notes: scFv clone from phage display
As for B8, the values for the koff in assay [1] and in assay [2] were 0.000524 s⁻¹ and 0.00594 s⁻¹, respectively.

B9: suPAR_DB02_G08 (scFv, V domains shown)
VH: QVQLVQSGAEVKKPGASVKVSCKASGDTFTSYYMHWVRQAPGQGLEWMGWIDHEGGNTSYEQKFQGRVTMTRDTSTSTVYMELSSLRSEDTAVYYCARGYDVDWFVYWGQGTLVTVSS
VL: DIQMTQSPSSLSASVGDRVTITCSARSSVSYMYWYQQKPGKAPKLLIYRTSNLASGVPSRFSGSGSGTDFTLTISSLQPEDFATYYCQQYHSYPPTFGGGTKVEIK
notes: scFv clone from phage display
Regarding B9, the figures for the koff in assay [1] and in assay [2] were 0.000103 s⁻¹ and 0.00395 s⁻¹, respectively.

B10: suPAR_DB02_F03 (scFv, V domains shown)
VH: QVQLVQSGAEVKKPGASVKVSCKASGYTFTSYYVHWVRQAPGQGLEWMGWIDPEGGSTIYDQKFQGRVTMTRDTSTSTVYMELSSLRSEDTAVYYCARGYDVDWFVYWGQGTLVTVSS
VL: DIQMTQSPSSLSASVGDRVTITCSARSSVSYMYWYQQKPGKAPKLLIYRTSSLQSGVPSRFSGSGSGTDFTLTISSLQPEDFATYYCQQYHSYPPTFGGGTKVEIK
notes: scFv clone from phage display
As for B10, the values for the dissociation rate constant (koff) in assay [1] and in assay [2] were 0.000492 s⁻¹ and 0.00504 s⁻¹, respectively.

B11: suPAR_DB02_G06 (scFv, V domains shown)
VH: QVQLVQSGAEVKKPGASVKVSCKASGYTFTNYYMHWVRQAPGQGLEWMGWIDHEGGSTIYAQKFQGRVTMTRDTSTSTVYMELSSLRSEDTAVYYCARGYDVDWFVYWGQGTLVTVSS
VL: DIQMTQSPSSLSASVGDRVTITCSARSSISYMYWYQQKPGKAPKLLIYRTSNLASGVPSRFSGSGSGTDFTLTISSLQPEDFATYYCQQYHSYPPTFGGGTKVEIK
notes: scFv clone from phage display
Take B11: the koff in assay [1] is 0.000132 s⁻¹; in assay [2], 0.00137 s⁻¹.

B12: suPAR_DB02_G07 (scFv, V domains shown)
VH: QVQLVQSGAEVKKPGASVKVSCKASGYTFTSYYMHWVRQAPGQGLEWMGWIDPENGSTIYDQKFQGRVTMTRDTSTSTVYMELSSLRSEDTAVYYCARGYDVDWFVYWGQGTLVTVSS
VL: DIQMTQSPSSLSASVGDRVTITCSASQSVSYMYWYQQKPGKAPKLLIYRTSNLASGVPSRFSGSGSGTDFTLTISSLQPEDFATYYCQQYHSYPPTFGGGTKVEIK
notes: scFv clone from phage display
Turning to B12, the koff in assay [1] was found to be 0.000286 s⁻¹; in assay [2] it was 0.00367 s⁻¹.

B13: suPAR_DB02_H05 (scFv, V domains shown)
VH: QVQLVQSGAEVKKPGASVKVSCKASGYFFTAYYMHWVRQAPGQGLEWMGWIDPENGNTIYDQKFQGRVTMTRDTSTSTVYMELSSLRSEDTAVYYCARGYDVDWFVYWGQGTLVTVSS
VL: DIQMTQSPSSLSASVGDRVTITCSARSSVSYMYWYQQKPGKAPKLLIYRTSNLASGVPSRFSGSGSGTDFTLTISSLQPEDFATYYCQQYHSYPPTFGGGTKVEIK
notes: scFv clone from phage display
In the case of B13, the koff in assay [1] turned out to be 0.00021 s⁻¹; in assay [2] it was 0.00442 s⁻¹.

B14: suPAR_DB02_H01 (scFv, V domains shown)
VH: QVQLVQSGAEVKKPGASVKVSCKASGYTFTGQYIHWVRQAPGQGLEWMGWIDHSGGSTIYDQKFQGRVTMTRDTSTSTVYMELSSLRSEDTAVYYCAGGYDVDWFVYWGQGTLVTVSS
VL: DIQMTQSPSSLSASVGDRVTITCSARSSVSYMYWYQQKPGKAPKLLIYRTSSLASGVPSRFSGSGSGTDFTLTISSLQPEDFATYYCQQYHSYPPTFGGGTKVEIK
notes: scFv clone from phage display
With B14, the koff amounted to 0.000218 s⁻¹ in assay [1] and 0.00315 s⁻¹ in assay [2].

B15: suPAR_DB02_G02 (scFv, V domains shown)
VH: QVQLVQSGAEVKKPGASVKVSCKASGYTFTRYYMHWVRQAPGQGLEWMGWIDHENGSTIYAQKFQGRVTMTRDTSTSTVYMELSSLRSEDTAVYYCARGYDVDWFVYWGQGTLVTVSS
VL: DIQMTQSPSSLSASVGDRVTITCSARSSVSYMYWYQQKPGKAPKLLIYRTSSLQSGVPSRFSGSGSGTDFTLTISSLQPEDFATYYCQQYHSYPPTFGGGTKVEIK
notes: scFv clone from phage display
B15: the koff in assay [1] came out at 0.000125 s⁻¹; in assay [2], 0.00242 s⁻¹.

B16: suPAR_DB02_F02 (scFv, V domains shown)
VH: QVQLVQSGAEVKKPGASVKVSCKASGYTFTDYYMHWVRQAPGQGLEWMGWIDPENGNTIYDQKFQGRVTMTRDTSTSTVYMELSSLRSEDTAVYYCARGYDVDWFVYWGQGTLVTVSS
VL: DIQMTQSPSSLSASVGDRVTITCSARSSVSYMYWYQQKPGKAPKLLIYRTSNLQSGVPSRFSGSGSGTDFTLTISSLQPEDFATYYCQQYHSYPPTFGGGTKVEIK
notes: scFv clone from phage display
B16: the results for the koff in assay [1] and in assay [2] were 0.00048 s⁻¹ and 0.00179 s⁻¹, respectively.

B17: suPAR_DB02_E10 (scFv, V domains shown)
VH: QVQLVQSGAEVKKPGASVKVSCKASGYTFTNYFMHWVRQAPGQGLEWMGWIDHENGNTIYDQKFQGRVTMTRDTSTSTVYMELSSLRSEDTAVYYCARGYDVDWFVYWGQGTLVTVSS
VL: DIQMTQSPSSLSASVGDRVTITCSARSSVSYMYWYQQKPGKAPKLLIYRTSNLASGVPSRFSGSGSGTDFTLTISSLQPEDFATYYCQQYHSYPPTFGGGTKVEIK
notes: scFv clone from phage display
Regarding B17, the koff in assay [1] was 0.000189 s⁻¹; in assay [2] it was 0.00552 s⁻¹.

B18: suPAR_DB02_E08 (scFv, V domains shown)
VH: QVQLVQSGAEVKKPGASVKVSCKASGYNIKSYYIHWVRQAPGQGLEWMGWIDHENGNTIYDQKFQGRVTMTRDTSTSTVYMELSSLRSEDTAVYYCAAGYDVDWFVYWGQGTLVTVSS
VL: DIQMTQSPSSLSASVGDRVTITCSARSSVSYMYWYQQKPGKAPKLLIYRTSNLASGVPSRFSGSGSGTDFTLTISSLQPEDFATYYCQQYHSYPPTFGGGTKVEIK
notes: scFv clone from phage display
As for B18, the koff in assay [1] came to 0.000363 s⁻¹; in assay [2], 0.0031 s⁻¹.

B19: suPAR_DB02_E12 (scFv, V domains shown)
VH: QVQLVQSGAEVKKPGASVKVSCKASGYTFTSNYMHWVRQAPGQGLEWMGWIDHENGNTIYDQKFQGRVTMTRDTSTSTVYMELSSLRSEDTAVYYCARGYDVDWFVYWGQGTLVTVSS
VL: DIQMTQSPSSLSASVGDRVTITCSASQSVSYMYWYQQKPGKAPKLLIYRTSNLASGVPSRFSGSGSGTDFTLTISSLQPEDFATYYCQQYHSYPPTFGGGTKVEIK
notes: scFv clone from phage display
Consider B19, for which the off-rate constant (koff) in assay [1] worked out at 0.000215 s⁻¹; in assay [2], 0.00675 s⁻¹.
